Patent US20220155309A1 (NATIONAL UNIVERSITY CORPORATION TOKYO MEDICAL AND DENTAL …, published 2022)
Substitutions are numbered along the chain they refer to. One block for each binder: values may come before it.

Columns and labels:
[1] = target: T1, Affimer that binds to actin with ALFA-tag introduced (SEQ ID No: 41); assay: fluorescence polarization microscopy of HeLaM cells expressing the ALFA-tagged Affimer, detected with the anti-ALFA-tag Nanobody-cp176-172mVenus fusion
T1 construct: Expressed in HeLaM cells; also called fusion protein of Affimer and an ALFA-tag; Affimer with ALFA-tag introduced
T1 chain: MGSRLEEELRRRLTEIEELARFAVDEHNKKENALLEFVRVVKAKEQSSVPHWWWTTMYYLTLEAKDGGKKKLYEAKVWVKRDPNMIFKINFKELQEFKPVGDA
Text: Specifically, an ALFA-tag (SEQ ID No: 40) was introduced into an Affimer (SEQ ID No: 2) that binds to F-actin as a model system for verifying the above detection system, to obtain a fusion protein having the amino acid sequence set forth in SEQ ID No: 41. This fusion protein was expressed in HeLaM cells. A fusion protein of an anti-ALFA-tag Nanobody (SEQ ID No: 42) and cp176-172mVenus (SEQ ID No: 43) were brought into contact, and fluorescence polarization was observed. The fusion protein of anti-ALFA-tagged Nanobody and cp176-172mVenus was a fusion protein suitable for observation of fluorescence polarization, in which the Nanobody and the cp176-172mVenus were tightly linked (c.f. Example 5).

vimentin [2] = target: T2, vimentin (UniProt P08670 2-466, limits assumed); assay: fluorescence polarization microscopy of cells expressing the fusion protein
T2 construct: whole, on cells; Endogenous intracellular intermediate filament; also called vimentin fibers; intracellular vimentin
Text: (§1) An expression vector in which DNA encoding the fusion protein designed was placed under an appropriate promoter was introduced by a lipofection method (Avalanche-Everyday Transfection Reagent), thereby allowing HeLa cells to express the above fusion protein. The cells expressing the fusion protein were observed by fluorescence polarization microscopy.
(§2) The orientation of polarization was different from that in the previous cp-sfGFP. The cp-sfGFP of Example 5 and the cp176-172mVenus used in this example were basically the same type of fluorescent proteins but different in the position of cp.

vimentin [3] = target: T2, vimentin; assay: fluorescence polarization microscopy of HeLa cells expressing the fusion protein
Text: as §1, §2

T2 sequence (P08670 2-466 limits assumed): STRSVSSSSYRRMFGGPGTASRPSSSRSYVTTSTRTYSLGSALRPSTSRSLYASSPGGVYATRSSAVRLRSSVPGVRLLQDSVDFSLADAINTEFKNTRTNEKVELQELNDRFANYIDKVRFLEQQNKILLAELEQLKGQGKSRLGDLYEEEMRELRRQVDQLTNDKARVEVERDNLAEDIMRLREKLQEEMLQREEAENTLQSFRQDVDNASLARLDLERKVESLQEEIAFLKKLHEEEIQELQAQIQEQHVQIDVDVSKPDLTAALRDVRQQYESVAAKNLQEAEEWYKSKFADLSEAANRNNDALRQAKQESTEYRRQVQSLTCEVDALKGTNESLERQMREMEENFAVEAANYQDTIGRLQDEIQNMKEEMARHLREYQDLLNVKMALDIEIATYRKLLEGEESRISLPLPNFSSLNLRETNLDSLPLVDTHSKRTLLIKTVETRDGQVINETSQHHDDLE

B2: fusion protein of Nanobody that binds to vimentin and cpmTurquoise2 (SEQ ID No: 25) (VHH)
VHH: QVQLVESGGGLVQSGGSLTLTCAASGFTFSAASMRWVRQVPGKGLEWVATIDGTGANSYYSESAKGRFTISRDNARNTLRLQMNNLKPDDTAVYYCANFGRNYWGKGTQVTVVV
- binding result (vimentin [2]): binds

B4: fusion protein of vimentin-binding Nanobody and mApple (SEQ ID No: 19) (VHH)
VHH: B2 VHH with V113M, V114A
notes: Expressed inside HeLa cells; also called fusion protein of mApple and Nanobody
- binding result (vimentin [3]): binds

B6: fusion protein of Nanobody that binds to vimentin and cpmVenus (SEQ ID No: 26) (VHH)
VHH: B2 VHH
- binding result (vimentin [2]): binds

The remaining lines, values ahead:

- binding result [1]: binds
B1: fusion protein of anti-ALFA-tag Nanobody and cp176-172mVenus (SEQ ID No: 43) (VHH)
VHH: EVQLQESGGGLVQPGGSLRLSCTASGVTISALNAMAMGWYRQAPGERRVMVAAVSERGNAMYRESVQGRFTVTRDFTNKMVSLQMDNLKPEDTAVYYCHVLEDRVDSFHDYWGQGTQVTVVQ

- binding result (vimentin [3]): binds
B3: fusion protein of Nanobody that binds to vimentin and cp176-172mVenus (SEQ ID No: 31) (VHH)
VHH: B2 VHH
notes: Expressed inside HeLa cells

- binding result (vimentin [3]): binds
B5: fusion protein of vimentin-binding Nanobody and cp-sfGFP (SEQ ID No: 17) (VHH)
VHH: B2 VHH
notes: Expressed inside HeLa cells; beta-sheet to beta-sheet linkage; also called fusion protein of cp-sfGFP and Nanobody
